Eight molecules from patent US20180112001A1 (Regeneron, published 2018) can be followed below.

Like-named read-outs stand apart in the source and are kept apart here.

Assay [1] concerns the target T1, soluble monomeric human MUC16, truncated format encompassing the last five SEA domains of Mucin-16 (human).
T1 construct: also called hMUC16.mmh; MUC16 "nub"
T1 chain: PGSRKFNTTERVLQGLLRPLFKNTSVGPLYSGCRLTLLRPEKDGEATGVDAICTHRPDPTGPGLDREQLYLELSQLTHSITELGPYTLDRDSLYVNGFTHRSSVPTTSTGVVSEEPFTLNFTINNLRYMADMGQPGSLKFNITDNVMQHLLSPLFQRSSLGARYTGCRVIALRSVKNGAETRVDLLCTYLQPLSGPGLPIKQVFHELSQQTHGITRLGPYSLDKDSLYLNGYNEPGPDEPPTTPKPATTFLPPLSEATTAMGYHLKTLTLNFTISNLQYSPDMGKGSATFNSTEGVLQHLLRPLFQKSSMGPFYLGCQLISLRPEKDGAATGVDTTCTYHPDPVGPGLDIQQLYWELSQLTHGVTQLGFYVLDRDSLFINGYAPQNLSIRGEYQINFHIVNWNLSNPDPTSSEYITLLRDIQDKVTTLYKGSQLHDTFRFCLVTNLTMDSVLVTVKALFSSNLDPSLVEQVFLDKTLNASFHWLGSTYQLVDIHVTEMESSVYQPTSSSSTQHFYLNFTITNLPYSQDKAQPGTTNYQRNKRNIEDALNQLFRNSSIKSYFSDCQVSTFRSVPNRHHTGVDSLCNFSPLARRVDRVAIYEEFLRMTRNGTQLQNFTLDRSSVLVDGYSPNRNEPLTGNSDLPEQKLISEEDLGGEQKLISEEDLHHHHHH
Put plainly: SPR Biacore, antibody captured, soluble monomeric hMUC16.mmh injected, 25C. In general terms: In SPR one partner is held on a chip, and binding of the other changes the refractive index at the surface.

The target in assay [2] is T2, human MUC16 (mucin 16), endogenously expressed on cells (human).
T2 construct: Endogenous MUC16 on OVCAR-3 / OVCAR3-Luc / PEO-1 / HPAC cells; also called hMUC16
Briefly: MSD electrochemiluminescence cell binding; RLU ratio OVCAR-3/SK-OV-3; Ab 1.9 nM.

For assay [3], the target named is T2, human MUC16 (mucin 16), endogenously …. Briefly: MSD electrochemiluminescence cell binding; RLU ratio OVCAR-3/SK-OV-3; Ab 16.7 nM.
Assay [4] concerns the target T1, soluble monomeric human MUC16, …. Put plainly: SPR Biacore, antibody captured, soluble monomeric hMUC16.mmh injected, 25C.
Assay [5] addresses T2, human MUC16 (mucin 16), endogenously …. Briefly: MSD electrochemiluminescence cell binding; RLU ratio OVCAR-3/SK-OV-3; Ab 16.7 nM; NS = Non-Specific, ratio <2.5-fold.
Assay [6] has the same target. Briefly: cell-based or functional assay.
The target is the same in assay [7]. Briefly: cell-based or functional assay. The source holds these as a separate data set.
Assay [8] deals with T3, cynomolgus monkey CD3 on cynomolgus T cells (cynomolgus monkey, UniProt Q95LI5 22-198).
T3 construct: whole, on cells; also called cynomolgus CD3
T3 sequence (Q95LI5 22-198): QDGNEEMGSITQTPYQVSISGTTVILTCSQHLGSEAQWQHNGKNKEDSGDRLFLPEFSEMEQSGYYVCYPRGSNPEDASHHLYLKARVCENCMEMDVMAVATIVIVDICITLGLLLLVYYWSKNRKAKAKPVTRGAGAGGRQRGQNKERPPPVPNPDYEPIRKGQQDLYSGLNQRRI
Put plainly: FACS binding titration on cynomolgus T cells. A general note: A flow cytometer gives signals particle by particle.

For assay [9], the target named is T2, human MUC16 (mucin 16), endogenously …. Briefly: FACS binding titration on PEO-1 (MUC16+) cells.
Assay [10] shares this target. Briefly: FACS binding titration on OVCAR3-Luc (MUC16+) cells.
The target in a further assay is mouse CD3 (mouse, UniProt P22646 22-108). Put plainly: not described (statement in the pharmacokinetic example).
Chain of mouse CD3 (P22646 22-108): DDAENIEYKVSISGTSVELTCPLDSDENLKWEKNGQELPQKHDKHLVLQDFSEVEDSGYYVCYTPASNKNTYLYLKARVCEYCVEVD
Assay [11] has as its target T1, soluble monomeric human MUC16, …. Briefly: SPR Biacore, antibody captured, soluble monomeric hMUC16.mmh injected, 25C.
The target of assay [12] is T4, human CD3 on cells (Jurkat cells, human T cells) (human, UniProt P07766 23-207; P04234 22-171).
T4 construct: on cells CD3 is part of the TCR complex; also called hCD3
T4 sequence (P07766 23-207 limits assumed, chain 1 of 2): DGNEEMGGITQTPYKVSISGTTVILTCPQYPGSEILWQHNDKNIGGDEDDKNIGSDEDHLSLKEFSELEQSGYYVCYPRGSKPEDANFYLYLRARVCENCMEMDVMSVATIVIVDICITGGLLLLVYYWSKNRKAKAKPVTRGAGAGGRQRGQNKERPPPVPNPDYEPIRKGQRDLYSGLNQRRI
T4 sequence (P04234 22-171 limits assumed, chain 2 of 2): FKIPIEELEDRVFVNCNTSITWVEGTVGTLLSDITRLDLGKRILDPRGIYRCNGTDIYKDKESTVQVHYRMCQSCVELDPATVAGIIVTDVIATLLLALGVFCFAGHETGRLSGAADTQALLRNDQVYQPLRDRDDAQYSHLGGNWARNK
Put plainly: FACS titration of Jurkat cells.

For assay [13], the target named is T3, cynomolgus monkey CD3 on cynomolgus T …. Put plainly: FACS titration of cynomolgus T cells.
The target in assay [14] is T2, human MUC16 (mucin 16), endogenously …. Put plainly: cell-based or functional assay. This is another data set of the same source.
In assay [15] the target is T4, human CD3 on cells (Jurkat cells, human …). Briefly: cell-based or functional assay.
Assay [16] shares this target. Put plainly: cell-based or functional assay. The source holds these as a separate data set.
Assay [17] shares this target. Put plainly: cell-based or functional assay. The source holds these as a separate data set.
Assay [18] shares this target. Put plainly: FACS binding titration on Jurkat cells.
Assay [19] shares this target. Put plainly: FACS binding titration on Jurkat cells. The source holds these as a separate data set.
For assay [20], the target named is T2, human MUC16 (mucin 16), endogenously …. Put plainly: FACS binding titration on OVCAR3 (MUC16+) cells.

B1: H3M9529N (antibody, mouse IgG3, V domains shown)
VH: QVQLQQWGAGLLKPSETLSLTCAVYGGSFSGFYWSWIRQPPGKGLEWIGEINHSGSAKYNPSLKNRVIISIDTSKNQFSLKLDSVTAADTAVYNCARQGWNFAIFDYWGQGTLVDVSS
VL: DIVMTQSPDSLAVSLGGRATINCKSSQSVLHSSYNKDHLAWYQQRPGQPPKLLIYWASTRESGVPDRFSGSGSGTDFTLTISSLQAEDVAVYYCQQYNILPPTFGQGTRVEIK
notes: Mouse IgG3 constant region (H3M)
As for B1, the binding result in assay [1] is “no binding”. Also, the “Ratio: anti-MUC16 Binding OVCAR-3/SK-OV-3” value in [2] amounted to 143 ratio; in [3], 99 ratio.

B2: H1M9528N (antibody, mouse IgG1, V domains shown)
VH: QMQLQESGPGLVKPSETLSLTCTVSGGSISSYYWNWIRQPPGKGLEWIGYIYYSGNNFNPSLKSRVTISVDTSKNQFSLKLSSVTAADTAVYYCARAFHWNYEFDYWGQGTLVTVSS
VL: EIVLTQSPGTLSLSPGERATLSCRASQSVSNNYLAWYQQKPGQAPRLLLYGASSRTTDIPDRFSGSGSGTDFTLTISRLEPEDFAVYYCQQYDNSPLTFGGGTKVEIR
notes: Mouse IgG1 constant region (H1M)
Regarding B2, in assay [1], the binding result was “no binding”. The “Ratio: anti-MUC16 Binding OVCAR-3/SK-OV-3” value turned out to be 153 ratio in assay [2] and 120 ratio in assay [3].

B3: H1H8808P (antibody, human IgG1, V domains shown)
VH: QVQLVESGGGVVQPGRSLRLSCVASGFTFSNYGIHWVRQAPGKGLEWVAVISDDGSFKFYADSVKGRFTISRDNSKNTLYLQMNSLRVEDSAVYHCAKWQHNWNDGGFDYWGQGTLVTVSS
VL: EIVLTQSPDTLSLSPGERATLSCRASQSLSSNYLAWYRQKPGQAPRLLIYGISSRATGIPDRFSGSGSGTDFTLTISRLEPEDFAVYYCQQYGSSPWTFGQGTKVEIK
notes: Human IgG1 (H1H)
For B3, in [4], the Kd (in general, the equilibrium constant for the complex coming apart) stood at 52.4 nM; the koff (commonly the first-order rate constant of dissociation) amounted to 0.000216 s⁻¹; the on-rate constant (kon) (in general, the second-order rate constant of association) worked out at 4120 M⁻¹ s⁻¹; the “t1/2” value was found to be 54 min. Moreover, the “Ratio: anti-MUC16 Binding OVCAR-3/SK-OV-3” value in assay [2] was determined as 4 ratio. For the same molecule, the “Ratio: anti-MUC16 Binding OVCAR-3/SK-OV-3” value in [5] is less than 2.5 ratio.

B4: BSMUC16/CD3-005 (bispecific antibody, V domains shown)
VH 1: QVQLVESGGGLVKPGGSLRLSCAASGFTFSNYYMSWVRQAPGKGLEWISYISGRGSTIFYADSVKGRITISRDNAKNSLFLQMNSLRAEDTAVYFCVKDRGGYSPYWGQGTLVTVSS
VH 2: EVQLVESGGGLVQPGRSLRLSCAASGFTFDDYSMHWVRQAPGKGLEWVSGISWNSGSIGYADSVKGRFTISRDNAKNSLYLQMNSLRAEDTALYYCAKYGSGYGKFYYYGMDVWGQGTTVTVSS
VL: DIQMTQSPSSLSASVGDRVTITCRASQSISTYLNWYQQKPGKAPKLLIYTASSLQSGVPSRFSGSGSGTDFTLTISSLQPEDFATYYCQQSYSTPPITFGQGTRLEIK
notes: Anti-MUC16 VH (H1H8767P), anti-CD3 VH (CD3-VH-G20), common light chain; also called REGN4019; anti-MUC16xCD3 bispecific antibody with CD3-VH-G20 arm
Take B4: the “PEO-1 cell depletion EC50” value in assay [6] was 0.0774 nM. For the same molecule, in assay [7], the “OVCAR3-Luc cell depletion EC50” value worked out at 0.0516 nM. Also, a half-maximal response in [8] (EC50) required 1170 nM. In assay [9], the EC50 (usually the concentration that produces a half-maximal response) is 2.63 nM. Besides, the EC50 in assay [10] was found to be 1.47 nM. Besides, the binding result with mouse CD3 is “no binding”. Further, in [11], the Kd came to 6 nM, the koff amounted to 0.000564 s⁻¹, the kon amounted to 94100 M⁻¹ s⁻¹ and the “t ½” value amounted to 21 min.

B5: H1H8767P (antibody, human IgG1, V domains shown)
VH: QVQLVESGGGLVKPGGSLRLSCAASGFTFSNYYMSWVRQAPGKGLEWISYISGRGSTIFYADSVKGRITISRDNAKNSLFLQMNSLRAEDTAVYFCVKDRGGYSPYWGQGTLVTVSS
VL: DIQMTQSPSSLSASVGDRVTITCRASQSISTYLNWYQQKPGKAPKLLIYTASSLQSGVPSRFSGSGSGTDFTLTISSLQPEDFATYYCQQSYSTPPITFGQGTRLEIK
notes: Human IgG1 (H1H)
As to B5, in assay [4], the Kd was found to be 3.58 nM, the koff came to 0.000418 s⁻¹, the kon was 117000 M⁻¹ s⁻¹ and the “t1/2” value came out at 28 min. Besides, the “Ratio: anti-MUC16 Binding OVCAR-3/SK-OV-3” value in [2] was 4 ratio. Further, in assay [5], the “Ratio: anti-MUC16 Binding OVCAR-3/SK-OV-3” value is less than 2.5 ratio.

B6: CD3-VH-P (anti-CD3 antibody) (antibody, V domains shown)
VH: EVQLVESGGGLVQPGRSLRLSCVASGFTFDDYSMHWVRQAPGKGLEWVSGISWNSGSKDYADSVKGRFTISRDNAKNSLYLQMNSLRAEDTALYYCAKYGSGYGKFYHYGLDVWGQGTTVTVSS
VL: DIQMTQSPSSLSASVGDSVTITCRASQSINNYLNWYQQKPGKAPKLLIYTASSLLSGVPSRFSGSGSGTDFTLTISGLHPEDFATYFCQQSFSTPPITFGQGTRLDIK
With B6, the EC50 in assay [12] and in assay [13] was 1 to 40 nM each time.

B7: BSMUC16/CD3-001 (bispecific antibody, V domains shown)
VH 1: QVQLVESGGGLVKPGGSLRLSCAASGFTFSNYYMSWVRQAPGKGLEWISYISGRGSTIFYADSVKGRITISRDNAKNSLFLQMNSLRAEDTAVYFCVKDRGGYSPYWGQGTLVTVSS
VH 2: EVQLVESGGGLVQPGRSLRLSCAASGFTFDDYSMHWVRQAPGKGLEWVSGISWNSGSKGYADSVKGRFTISRDNAKNSLYLQMNSLRAEDTALYYCAKYGSGYGKFYHYGLDVWGQGTTVTVSS
VL: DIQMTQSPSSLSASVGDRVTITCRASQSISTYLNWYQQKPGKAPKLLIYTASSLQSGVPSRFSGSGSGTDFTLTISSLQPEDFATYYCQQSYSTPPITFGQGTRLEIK
notes: Anti-MUC16 VH (H1H8767P), anti-CD3 VH (CD3-VH-G), common light chain; also called anti-MUC16xCD3 bispecific antibody with CD3-VH-G arm
Take B7: in [14], the “OVCAR3 cell depletion EC50” value is 0.0224 nM. In [15], the “T cell activation (CD69 upregulation) EC50” value was 0.00588 nM. Further, in assay [6], the “PEO-1 cell depletion EC50” value was determined as 0.0256 nM. In addition, the figures for the “T cells activation (CD25 upregulation) EC50” value in [16] and in assay [17] were 0.039 nM and 0.0306 nM, respectively. The “T cells activation (CD69 upregulation) EC50” value in assay [16] turned out to be 0.00834 nM; in [17], 0.00298 nM. For the same molecule, in [7], the “OVCAR3-Luc cell depletion EC50” value amounted to 0.0154 nM. The EC50 stood at 3.21 nM in [18]; 6.44 nM in assay [19]; 15.6 nM in [8]; 3.02 nM in assay [9]; 1.2 nM in assay [20]; 1.32 nM in assay [10]. In the assay with mouse CD3, the binding result was “no binding”. This molecule came in with a Kd in [11] of 6.18 nM. This molecule also registered a koff in assay [11] of 0.000586 s⁻¹. For the same molecule, the kon in assay [11] came to 94800 M⁻¹ s⁻¹. For the same molecule, the “t ½” value in assay [11] was found to be 20 min.

B8: BSMUC16/CD3-002 (bispecific antibody, V domains shown)
VH 1: QVQLVESGGGLVKPGGSLRLSCAASGFTFSNYYMSWVRQAPGKGLEWISYISGRGSTIFYADSVKGRITISRDNAKNSLFLQMNSLRAEDTAVYFCVKDRGGYSPYWGQGTLVTVSS
VH 2: EVQLVESGGGLVQPGRSLRLSCAASGFTFDDYSMHWVRQAPGKGLEWVSGISWNSGSIGYADSVKGRFTISRDNAKNSLYLQMNSLRAEDTALYYCAKDGSGYGKFYYYGMDVWGQGTTVTVSS
VL: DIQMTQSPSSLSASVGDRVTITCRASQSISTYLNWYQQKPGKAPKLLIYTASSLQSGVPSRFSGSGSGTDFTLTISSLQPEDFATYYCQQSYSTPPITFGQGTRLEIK
notes: Anti-MUC16 VH (H1H8767P), anti-CD3 VH (CD3-VH-G5), common light chain; also called anti-MUC16xCD3 bispecific antibody with CD3-VH-G5 arm
Take B8: the “OVCAR3 cell depletion EC50” value in assay [14] worked out at 0.0306 nM. For the same molecule, the “T cell activation (CD69 upregulation) EC50” value in [15] was 0.0101 nM. In addition, the “PEO-1 cell depletion EC50” value in [6] was 0.0675 nM. The “T cells activation (CD25 upregulation) EC50” value in [16] came out at 0.0889 nM. The “T cells activation (CD69 upregulation) EC50” value in assay [16] came to 0.0134 nM. Also, the EC50 in assay [19] was 301 nM; in assay [9], 3.13 nM; in [20], 2.69 nM. Besides, the binding result in assay [8] is “no binding (tested: serial dilution from 66.6 nM to 0.001 nM)”.
